Measurements: IntAct's records for PubMed 31515488

B1: Ribose-phosphate pyrophosphokinase 1 (Homo sapiens), P60891 (parent)
chain: MPNIKIFSGSSHQDLSQKIADRLGLELGKVVTKKFSNQETCVEIGESVRGEDVYIVQSGCGEINDNLMELLIMINACKIASASRVTAVIPCFPYARQDKKDKSRAPISAKLVANMLSVAGADHIITMDLHASQIQGFFDIPVDNLYAEPAVLKWIRENISEWRNCTIVSPDAGGAKRVTSIADRLNVDFALIHKERKKANEVDRMVLVGDVKDRVAILVDDMADTCGTICHAADKLLSAGATRVYAILTHGIFSGPAISRINNACFEAVVVTNTIPQEDKMKHCSKIQVIDISMILAEAIRRTHNGESVSYLFSHVPL
partner: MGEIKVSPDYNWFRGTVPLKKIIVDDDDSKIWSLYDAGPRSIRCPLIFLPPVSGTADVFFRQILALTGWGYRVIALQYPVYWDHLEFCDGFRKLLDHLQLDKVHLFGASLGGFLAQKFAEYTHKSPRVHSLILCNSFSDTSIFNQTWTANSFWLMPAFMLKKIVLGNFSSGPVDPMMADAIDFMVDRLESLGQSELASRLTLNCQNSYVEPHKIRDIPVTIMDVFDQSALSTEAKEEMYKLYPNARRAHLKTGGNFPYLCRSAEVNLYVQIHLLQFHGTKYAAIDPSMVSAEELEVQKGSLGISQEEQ
B2: "Dol-P-Man:Man(5)GlcNAc(2)-PP-Dol alpha-1,3-mannosyltransferase" (Homo sapiens), Q92685 (parent)
chain: MAAGLRKRGRSGSAAQAEGLCKQWLQRAWQERRLLLREPRYTLLVAACLCLAEVGITFWVIHRVAYTEIDWKAYMAEVEGVINGTYDYTQLQGDTGPLVYPAGFVYIFMGLYYATSRGTDIRMAQNIFAVLYLATLLLVFLIYHQTCKVPPFVFFFMCCASYRVHSIFVLRLFNDPVAMVLLFLSINLLLAQRWGWGCCFFSLAVSVKMNVLLFAPGLLFLLLTQFGFRGALPKLGICAGLQVVLGLPFLLENPSGYLSRSFDLGRQFLFHWTVNWRFLPEALFLHRAFHLALLTAHLTLLLLFALCRWHRTGESILSLLRDPSKRKVPPQPLTPNQIVSTLFTSNFIGICFSRSLHYQFYVWYFHTLPYLLWAMPARWLTHLLRLLVLGLIELSWNTYPSTSCSSAALHICHAVILLQLWLGPQPFPKSTQHSKKAH
partner: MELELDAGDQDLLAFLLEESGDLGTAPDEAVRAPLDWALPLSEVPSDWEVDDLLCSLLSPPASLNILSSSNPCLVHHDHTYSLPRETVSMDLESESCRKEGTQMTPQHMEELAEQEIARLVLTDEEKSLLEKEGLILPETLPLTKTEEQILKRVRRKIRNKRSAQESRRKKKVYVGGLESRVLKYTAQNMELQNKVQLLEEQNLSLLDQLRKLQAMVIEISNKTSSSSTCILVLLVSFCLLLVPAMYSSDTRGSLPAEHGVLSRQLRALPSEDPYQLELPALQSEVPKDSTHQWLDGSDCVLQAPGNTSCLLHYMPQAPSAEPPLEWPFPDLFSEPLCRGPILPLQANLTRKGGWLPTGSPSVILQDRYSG
B3: Leukocyte receptor cluster member 1 (Homo sapiens), Q96BZ8 (parent)
chain: MNILPKKSWHVRNKDNVARVRRDEAQAREEEKERERRVLLAQQEARTEFLRKKARHQNSLPELEAAEAGAPGSGPVDLFRELLEEGKGVIRGNKEYKEEKRQEKERQEKALGILTYLGQSAAEAQTQPPWYQLPPGRGGPPPGPAPDEKIKSRLDPLREMQKHLGKKRQHGGDEGSRSRKEKEGSEKQRPKEPPSLDQLRAERLRREAAERSRAEALLARVQGRALQEGQPEEDETDDRRRRYNSQFNPQLARRPRQQDPHLTH
B4: 5'-AMP-activated protein kinase subunit beta-2 (Homo sapiens), O43741 (parent)
chain: MGNTTSDRVSGERHGAKAARSEGAGGHAPGKEHKIMVGSTDDPSVFSLPDSKLPGDKEFVSWQQDLEDSVKPTQQARPTVIRWSEGGKEVFISGSFNNWSTKIPLIKSHNDFVAILDLPEGEHQYKFFVDGQWVHDPSEPVVTSQLGTINNLIHVKKSDFEVFDALKLDSMESSETSCRDLSSSPPGPYGQEMYAFRSEERFKSPPILPPHLLQVILNKDTNISCDPALLPEPNHVMLNHLYALSIKDSVMVLSATHRYKKKYVTTLLYKPI
partner: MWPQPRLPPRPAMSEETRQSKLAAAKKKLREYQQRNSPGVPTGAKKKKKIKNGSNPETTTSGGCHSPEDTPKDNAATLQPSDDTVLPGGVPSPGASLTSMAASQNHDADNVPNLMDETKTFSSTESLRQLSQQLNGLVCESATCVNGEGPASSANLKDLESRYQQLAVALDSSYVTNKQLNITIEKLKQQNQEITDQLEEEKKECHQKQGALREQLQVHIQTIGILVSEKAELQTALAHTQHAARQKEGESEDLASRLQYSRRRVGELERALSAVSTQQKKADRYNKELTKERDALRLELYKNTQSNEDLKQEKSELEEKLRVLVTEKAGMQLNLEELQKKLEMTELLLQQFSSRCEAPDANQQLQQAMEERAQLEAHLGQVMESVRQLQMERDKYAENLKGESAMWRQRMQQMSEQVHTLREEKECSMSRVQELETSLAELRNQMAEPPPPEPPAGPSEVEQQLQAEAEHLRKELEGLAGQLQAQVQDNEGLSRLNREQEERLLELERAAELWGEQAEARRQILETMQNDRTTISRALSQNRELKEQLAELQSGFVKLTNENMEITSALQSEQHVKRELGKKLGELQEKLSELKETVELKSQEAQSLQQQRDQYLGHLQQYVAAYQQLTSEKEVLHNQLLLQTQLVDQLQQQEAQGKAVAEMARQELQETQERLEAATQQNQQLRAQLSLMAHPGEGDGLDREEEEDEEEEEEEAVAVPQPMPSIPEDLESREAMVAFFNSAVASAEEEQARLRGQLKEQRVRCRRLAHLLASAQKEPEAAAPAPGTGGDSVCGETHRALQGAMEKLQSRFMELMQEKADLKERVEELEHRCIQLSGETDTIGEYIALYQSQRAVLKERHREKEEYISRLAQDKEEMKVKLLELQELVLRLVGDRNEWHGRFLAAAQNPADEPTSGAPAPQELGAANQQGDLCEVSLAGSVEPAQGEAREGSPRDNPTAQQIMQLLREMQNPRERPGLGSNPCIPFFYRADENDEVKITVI
B5: U2 small nuclear ribonucleoprotein A' (Homo sapiens), P09661 (parent)
chain: MVKLTAELIEQAAQYTNAVRDRELDLRGYKIPVIENLGATLDQFDAIDFSDNEIRKLDGFPLLRRLKTLLVNNNRICRIGEGLDQALPCLTELILTNNSLVELGDLDPLASLKSLTYLSILRNPVTNKKHYRLYVIYKVPQVRVLDFQKVKLKERQEAEKMFKGKRGAQLAKDIARRSKTFNPGAGLPTDKKKGGPSPGDVEAIKNAIANASTLAEVERLKGLLQSGQIPGRERRSGPTDDGEEEMEEDTVTNGS
B6: STAM-binding protein (Homo sapiens), O95630 (parent)
chain: MSDHGDVSLPPEDRVRALSQLGSAVEVNEDIPPRRYFRSGVEIIRMASIYSEEGNIEHAFILYNKYITLFIEKLPKHRDYKSAVIPEKKDTVKKLKEIAFPKAEELKAELLKRYTKEYTEYNEEKKKEAEELARNMAIQQELEKEKQRVAQQKQQQLEQEQFHAFEEMIRNQELEKERLKIVQEFGKVDPGLGGPLVPDLEKPSLDVFPTLTVSSIQPSDCHTTVRPAKPPVVDRSLKPGALSNSESIPTIDGLRHVVVPGRLCPQFLQLASANTARGVETCGILCGKLMRNEFTITHVLIPKQSAGSDYCNTENEEELFLIQDQQGLITLGWIHTHPTQTAFLSSVDLHTHCSYQMMLPESVAIVCSPKFQETGFFKLTDHGLEEISSCRQKGFHPHSKDPPLFCSCSHVTVVDRAVTITDLR

Variants of: B1
Conditions: with spg21_human SPG21, Q9NZD8

Row | Variant | effect of a mutation on the interaction
1 | E43D | with no effect
2 | D183H | with no effect

Variants of: B2
Conditions: with creb3_human CREB3, O43889

Row | Variant | effect of a mutation on the interaction
3 | I107V | with no effect

Variants of: B3
Conditions: with cc136_human CCDC136, Q96JN2
cc136_human CCDC136, Q96JN2, sequence (Q96JN2 whole entry): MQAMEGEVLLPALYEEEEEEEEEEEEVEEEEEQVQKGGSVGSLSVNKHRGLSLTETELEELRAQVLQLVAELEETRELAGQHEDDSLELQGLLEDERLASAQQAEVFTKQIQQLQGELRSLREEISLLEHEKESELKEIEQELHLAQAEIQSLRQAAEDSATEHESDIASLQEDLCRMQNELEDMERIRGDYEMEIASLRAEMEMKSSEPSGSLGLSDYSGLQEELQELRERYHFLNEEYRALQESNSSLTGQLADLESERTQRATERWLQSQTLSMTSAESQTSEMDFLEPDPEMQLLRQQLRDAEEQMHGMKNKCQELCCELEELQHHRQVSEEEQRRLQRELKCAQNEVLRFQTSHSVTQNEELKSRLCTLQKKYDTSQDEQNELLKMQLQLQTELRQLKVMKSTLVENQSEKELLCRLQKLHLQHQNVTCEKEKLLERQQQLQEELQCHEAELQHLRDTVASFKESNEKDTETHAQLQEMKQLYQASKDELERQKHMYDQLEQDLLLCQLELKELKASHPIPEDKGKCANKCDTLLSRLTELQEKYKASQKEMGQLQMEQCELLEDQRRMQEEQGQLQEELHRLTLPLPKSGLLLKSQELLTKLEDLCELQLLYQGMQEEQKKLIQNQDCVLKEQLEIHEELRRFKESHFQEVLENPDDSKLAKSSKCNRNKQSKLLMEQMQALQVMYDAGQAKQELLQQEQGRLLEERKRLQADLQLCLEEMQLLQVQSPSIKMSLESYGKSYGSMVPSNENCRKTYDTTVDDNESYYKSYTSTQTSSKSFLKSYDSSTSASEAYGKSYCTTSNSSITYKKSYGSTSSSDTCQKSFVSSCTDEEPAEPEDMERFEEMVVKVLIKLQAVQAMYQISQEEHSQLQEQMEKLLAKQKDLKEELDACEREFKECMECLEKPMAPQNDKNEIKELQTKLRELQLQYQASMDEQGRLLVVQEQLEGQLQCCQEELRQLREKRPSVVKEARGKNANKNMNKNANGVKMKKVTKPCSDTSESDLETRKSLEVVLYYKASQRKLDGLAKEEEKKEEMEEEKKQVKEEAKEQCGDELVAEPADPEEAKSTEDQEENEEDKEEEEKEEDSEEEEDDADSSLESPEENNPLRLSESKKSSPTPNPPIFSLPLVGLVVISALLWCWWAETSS

Row | Variant | effect of a mutation on the interaction
4 | R256C | disrupting interaction strength

Variants of: B3
Conditions: with cep70_human CEP70, Q8NHQ1
cep70_human CEP70, Q8NHQ1, sequence (Q8NHQ1 whole entry): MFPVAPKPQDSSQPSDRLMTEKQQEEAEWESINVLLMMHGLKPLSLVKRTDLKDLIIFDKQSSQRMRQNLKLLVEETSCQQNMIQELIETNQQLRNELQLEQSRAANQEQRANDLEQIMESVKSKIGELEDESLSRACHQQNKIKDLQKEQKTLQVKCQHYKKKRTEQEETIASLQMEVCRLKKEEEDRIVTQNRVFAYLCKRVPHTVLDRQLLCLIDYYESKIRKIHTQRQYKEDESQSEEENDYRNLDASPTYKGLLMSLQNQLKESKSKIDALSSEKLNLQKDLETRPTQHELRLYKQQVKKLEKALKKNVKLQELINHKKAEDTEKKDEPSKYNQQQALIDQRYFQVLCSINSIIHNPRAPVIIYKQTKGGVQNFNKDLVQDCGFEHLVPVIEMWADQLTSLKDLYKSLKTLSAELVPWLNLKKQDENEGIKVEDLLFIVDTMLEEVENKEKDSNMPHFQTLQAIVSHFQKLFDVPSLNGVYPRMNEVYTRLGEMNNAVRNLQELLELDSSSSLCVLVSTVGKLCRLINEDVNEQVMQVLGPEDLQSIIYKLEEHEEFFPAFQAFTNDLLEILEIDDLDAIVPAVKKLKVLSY

Row | Variant | effect of a mutation on the interaction
5 | K97Q | with no effect

Variants of: B3
Conditions: with trim1_human MID2, Q9UJV3
trim1_human MID2, Q9UJV3, sequence (Q9UJV3 whole entry): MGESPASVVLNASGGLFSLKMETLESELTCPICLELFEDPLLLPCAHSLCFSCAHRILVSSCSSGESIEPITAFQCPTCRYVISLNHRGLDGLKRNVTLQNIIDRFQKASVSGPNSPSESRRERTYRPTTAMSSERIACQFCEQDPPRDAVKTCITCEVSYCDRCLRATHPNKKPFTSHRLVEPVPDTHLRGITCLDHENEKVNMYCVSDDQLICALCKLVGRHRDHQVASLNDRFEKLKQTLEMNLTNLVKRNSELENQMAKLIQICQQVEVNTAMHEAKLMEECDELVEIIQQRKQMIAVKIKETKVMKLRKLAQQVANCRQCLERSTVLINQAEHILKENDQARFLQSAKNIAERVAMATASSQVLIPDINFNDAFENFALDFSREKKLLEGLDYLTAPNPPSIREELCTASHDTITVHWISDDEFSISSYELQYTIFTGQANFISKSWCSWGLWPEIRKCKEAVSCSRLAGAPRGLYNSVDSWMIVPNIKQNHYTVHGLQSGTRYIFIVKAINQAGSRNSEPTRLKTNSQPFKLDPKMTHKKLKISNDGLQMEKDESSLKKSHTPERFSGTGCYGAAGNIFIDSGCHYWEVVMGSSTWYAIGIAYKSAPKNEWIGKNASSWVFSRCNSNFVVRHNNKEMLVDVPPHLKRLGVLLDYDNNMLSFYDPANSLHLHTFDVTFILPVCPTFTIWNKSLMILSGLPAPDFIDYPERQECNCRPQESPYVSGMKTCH

Row | Variant | effect of a mutation on the interaction
6 | K97Q | with no effect

Variants of: B3
Conditions: with rop1a_human ROPN1, Q9HAT0
rop1a_human ROPN1, Q9HAT0, sequence (Q9HAT0 whole entry): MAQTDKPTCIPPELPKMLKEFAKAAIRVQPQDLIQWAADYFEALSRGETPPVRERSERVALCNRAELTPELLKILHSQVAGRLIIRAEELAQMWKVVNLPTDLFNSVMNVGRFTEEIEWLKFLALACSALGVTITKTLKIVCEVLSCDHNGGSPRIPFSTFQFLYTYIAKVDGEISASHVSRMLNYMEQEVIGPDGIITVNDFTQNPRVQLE

Row | Variant | effect of a mutation on the interaction
7 | K97Q | with no effect

Variants of: B3
Conditions: with ldoc1_human LDOC1, O95751
ldoc1_human LDOC1, O95751, sequence (O95751 whole entry): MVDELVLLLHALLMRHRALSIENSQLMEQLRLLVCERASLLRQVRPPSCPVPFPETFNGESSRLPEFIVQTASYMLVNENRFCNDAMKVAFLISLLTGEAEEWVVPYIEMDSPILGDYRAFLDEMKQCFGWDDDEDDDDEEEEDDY

Row | Variant | effect of a mutation on the interaction
8 | K97Q | with no effect

Variants of: B4
Conditions: with goga2_human GOLGA2, Q08379

Row | Variant | effect of a mutation on the interaction
9 | G55E | with no effect

Variants of: B5
Conditions: with ru2b_human SNRPB2, P08579
ru2b_human SNRPB2, P08579, sequence (P08579 whole entry): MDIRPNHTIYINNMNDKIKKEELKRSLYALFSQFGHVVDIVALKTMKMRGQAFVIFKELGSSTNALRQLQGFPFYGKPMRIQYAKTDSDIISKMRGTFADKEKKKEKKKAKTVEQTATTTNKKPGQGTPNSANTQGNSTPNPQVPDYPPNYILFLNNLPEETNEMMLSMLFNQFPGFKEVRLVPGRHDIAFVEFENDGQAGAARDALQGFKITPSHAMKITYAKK

Row | Variant | effect of a mutation on the interaction
10 | P32S | with no effect
11 | S99N | with no effect

Variants of: B6
Conditions: with grb2_human GRB2, P62993
grb2_human GRB2, P62993, sequence (P62993 whole entry, looked up): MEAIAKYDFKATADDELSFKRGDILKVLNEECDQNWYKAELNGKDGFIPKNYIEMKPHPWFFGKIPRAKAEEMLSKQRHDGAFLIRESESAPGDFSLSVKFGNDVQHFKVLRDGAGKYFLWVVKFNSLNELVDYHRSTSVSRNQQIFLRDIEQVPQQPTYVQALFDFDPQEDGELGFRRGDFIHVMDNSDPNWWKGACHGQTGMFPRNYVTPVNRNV

Row | Variant | effect of a mutation on the interaction
12 | Q155H | disrupting interaction strength

Variants of: B6
Conditions: with stam2_human STAM2, O75886

Row | Variant | effect of a mutation on the interaction
13 | Q155H | disrupting interaction strength
